Patent US20230416394A1 (ELPISCIENCE SUZHOU BIOPHARMA, published 2023)

T1: KW27-6 (human, UniProt P49961 1-510)
T1 construct: on transfected HEK-293F cells; also called human CD39 mutant KW27-6; not shown: C-terminal EGFP (vector pCMV3-GFPSpark) and any linker to it
T1 sequence: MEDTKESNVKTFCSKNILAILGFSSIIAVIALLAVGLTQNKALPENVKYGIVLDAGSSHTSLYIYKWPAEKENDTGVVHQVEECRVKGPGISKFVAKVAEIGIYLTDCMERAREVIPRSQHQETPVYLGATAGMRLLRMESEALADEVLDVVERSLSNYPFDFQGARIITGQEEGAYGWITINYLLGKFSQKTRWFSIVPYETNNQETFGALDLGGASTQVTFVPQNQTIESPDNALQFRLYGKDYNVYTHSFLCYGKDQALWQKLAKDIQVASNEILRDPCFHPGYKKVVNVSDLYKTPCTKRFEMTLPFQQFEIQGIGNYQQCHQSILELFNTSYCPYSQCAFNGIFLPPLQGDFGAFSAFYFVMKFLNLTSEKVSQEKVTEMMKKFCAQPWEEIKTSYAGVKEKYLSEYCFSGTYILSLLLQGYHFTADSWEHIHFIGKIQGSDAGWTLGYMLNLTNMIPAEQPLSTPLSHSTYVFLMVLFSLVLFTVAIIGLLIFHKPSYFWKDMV

T2: mouse CD39 (mouse, UniProt P55772 1-510)
T2 construct: whole, on cells; also called mCD39; CHOK1-mCD39
T2 sequence (looked up): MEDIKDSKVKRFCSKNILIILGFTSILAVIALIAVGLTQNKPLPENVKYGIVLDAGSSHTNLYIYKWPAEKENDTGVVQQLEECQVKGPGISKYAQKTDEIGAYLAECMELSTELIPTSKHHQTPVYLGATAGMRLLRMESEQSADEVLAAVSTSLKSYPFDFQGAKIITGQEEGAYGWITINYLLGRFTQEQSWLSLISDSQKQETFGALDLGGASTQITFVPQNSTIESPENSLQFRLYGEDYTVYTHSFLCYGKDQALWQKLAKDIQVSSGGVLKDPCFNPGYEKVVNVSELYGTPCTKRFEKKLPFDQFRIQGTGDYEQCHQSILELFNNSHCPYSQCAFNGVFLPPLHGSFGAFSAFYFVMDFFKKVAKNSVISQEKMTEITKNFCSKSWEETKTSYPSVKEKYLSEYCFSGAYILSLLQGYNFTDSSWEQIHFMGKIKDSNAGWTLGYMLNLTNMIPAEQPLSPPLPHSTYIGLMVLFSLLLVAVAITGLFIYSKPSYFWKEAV

B1: Soluble TGFβ trap (i.e. TGFβRII) (receptor, UniProt P37173 24-159, looked up)
chain: IPPHVQKSVNNDMIVTDNNGAVKFPQLCKFCDVRFSTCDNQKSCMSNCSITSICEKPQEVCVAVWRKNDENITLETVCHDPKLPYHDFILEDAASPKCIMKEKKKPGETFFMCSCSSDECNDNIIFSEEYNTSNPD
notes: construct not described; also called TGFβ trap control
B2: 9-8B (antibody, V domains shown)
VH: QIQLVQSGPELKKPGETVKISCKASGYTFTHYGMNWVKQAPGKGLKWMGWINTYTGELTYADDFKGRFAFSLETSASTAYLQINNLKNEDTATYFCARRAYYRYDYVMDYWGQGTSVTVSS
VL: DIVMTQSQKFMSTSVGDRVSVTCKASHNVGTNVAWYQQKPGQSPKALIYSASYRYSGVPGRFTGSGSGTDFTLTISNVQSEDLAEYFCHQYNNYPYTFGGGTKLEIK
notes: also called Antibody 9-8B

Legend:
human TGFβ1 [1] = target: T3, human TGFβ1 (human, UniProt P01137 279-390); test: ELISA, coated human TGFβ1
T3 construct: also called TGFβ peptide (TGFβ1); biotinylated TGFβ1
T3 sequence (P01137 279-390 limits assumed): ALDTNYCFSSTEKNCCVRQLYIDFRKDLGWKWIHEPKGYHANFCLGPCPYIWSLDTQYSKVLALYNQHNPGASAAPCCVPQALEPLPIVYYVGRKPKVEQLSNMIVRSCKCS
Experimental: To determine the binding ability and specificity of the anti-CD39/TGFβ Trap molecules, ELISA assays were conducted using human TGFβ1, human TGFβ2, human TGFβ3 as well as mouse TGFβ1. The tested antigens were coated on NUNC 96-well immunoplate at the concentration of 1 μg/ml. Binding with increasing concentrations of anti-CD39/TGFβ Trap molecules was measured with anti-human Fc antibody horseradish peroxidase conjugate diluted in PBT buffer, then developed with TMB substrate. Soluble TGFβ trap was used as control. As shown in FIGS. 25A-25C, the anti-CD39/TGFβ Trap molecules ES014-1 and ES014-2 bind to all three TGFβ homologues: human TGFβ1, TGFβ2 and TGFβ3. The binding assay results of the other tested anti-CD39/TGFβ Trap molecules (including ES014-3, ES014-4, ES014-5, ES014-6, ES014-7) were similar and not shown herein. Moreover, the anti-CD39/TGFβ Trap molecule ES014-1 binds to mouse TGFβ1 with similar affinity as for human TGFβ1 (FIG. 25D).

human TGFβ1 [2] = target: T3, human TGFβ1; test: ELISA, blocking of TGFβRII-His binding to coated TGFβ1
Experimental: For blocking assay, TGFβ peptide (TGFβ1) was coated on microplates. A serial dilution of purified antibodies was incubated with recombinant TGFβRII-His protein (SinoBiological) for 1 h in TGFβ1-coated plates. After wash, the remaining TGFβRII-His was detected by anti-His-HRP conjugated secondary antibody. The values of absorbance at 450 nm were read on a microtiter plate reader (Molecular Devices Corp) for the quantification of TGFβRII-His binding to TGFβ1. All the tested anti-CD39/TGFβ Trap molecules (i.e. ES014-1, ES014-2, ES014-3, ES014-6) could effectively block human TGFβ1 binding to the TGFβ receptor TGFβRII (FIG. 26, Soluble TGFβ trap (i.e. TGFβRII) was used as control). IC 50 values of the anti-CD39/TGFβ Trap molecules were analyzed using GraphPad Prism.

KW27-6 = target: T1, KW27-6; test: FACS, HEK293F cells expressing mutant-EGFP
Experimental: Briefly, the human CD39 mutants were generated by gene synthesis and then cloned into an expression vector pCMV3-GFPSpark. The vectors containing the validated mutated sequences were prepared and transfected into HEK293F cells. Three days post transfection, the cells were collected to testing EGFP for transgene expression. A range of dosages of antibodies (start from 100 nM, 3-folds dilution, 11 points) were tested on the 20 generated mutants and stained by AlexFluor647 labelled anti-hIgG by FACS. Antibody binding was descripted as relative binding which is derived from AlexFluor647 intensity divided by GFP intensity.

mouse CD39 = target: T2, mouse CD39; test: FACS, CHOK1-mCD39 cells
From the text: FACS were used to determine binding of the antibodies to cell lines expressing CD39 naturally (SK-MEL-28) or recombinantly (CHOK1-hCD39, CHOK1-cynoCD39, and CHOK1-mCD39), or with cells lacking CD39 expression (CHOK1-blank) as a negative control.
CHOK1-hCD39, CHOK1-cCD39, CHOK1-mCD39 and CHOK1-blank cells were maintained in culture medium according to ATCC procedure. Cells were collected and re-suspended in blocking buffer at a density of 3×10⁶ cells/ml. […] The plates were washed with FACS buffer, and cells were re-suspended in 100 μL/well of PBS. Cells were then analyzed with FACSVerse™ and mean fluorescence intensity were determined. Full binding curves were generated on the CD39 expressing cells by testing a range of antibody concentrations. Apparent affinity was determined for each antibody using Prism software.

Binder	EC50 (human TGFβ1 [1]) [nM]	IC50 (human TGFβ1 [2]) [nM]	binding result (KW27-6)	binding result (mouse CD39)
B1	0.017	0.58		
B2			no binding (tested: 100 nM)	no binding (tested: 30 µg/ml)
